# Reference: the nanobody polyreactivity screen of Harvey et al. (2022)
# Experiment: yeast display, Sf9 membrane polyspecificity reagent, FACS + sequencing; frameworks hold sequencing errors
# Summary of the method: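 Genes from sorted yeast were amplified by colony PCR, read by MiSeq 2 × 250 sequencing and filtered on CDR length. These cells carried a synthetic nanobody library in Saccharomyces cerevisiae BJ5465 and were sorted by FACS into low and high (top ~1%) gates on anti-HA and streptavidin fluorescence. Polyreactivity is labelled according to the gate of origin.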
row,Sequence,polyreactivity (PSR sort gate)
1,QVQLVESGGGLVQAGGSLRLSSAASGRIFYKYAMGWNRQAPGKERELVAGITGSGGSTYYADSVKGRFTISRDNAKNTVYLQMNSLKPEDTAVYYCAKRVSYDYWGQGTQVTVSS,low polyreactivity
2,QVQLVESGGGLVQAGGSLRLSSAASGRISDFYTMGWYRQAPGKERELVAVIRTSGGRTNYADSVKGRFTISRDNAKNTVYLQMNSLKPEDTAVYYCAARVVRYGYKYYYWGQGTQVTVSS,low polyreactivity
3,QVQLVESGGGLVQAGGSLRLSSAASGRTFAWNAMGWYRQAPGKERELVAAISYNGGRTYYADSVKGRFTISRDNAKNTVYLQMNSLKPEDTAVYYCAAQRYGYWGQGTQVTVSS,high polyreactivity
4,QVQLVESGGGLVQAGGSLRLSSAASGRTFAWYAMGWYRQAPGKERELVAAISSGGSTYYADSVKGRFTISRDNAKNTVYLQMDSLKPEDTAVYYCAAEWHYIYAYDYWGQGTQVTVSS,low polyreactivity
5,QVQLVESGGGLVQAGGSLRLSSAASGRTFFRSGMGWYRQAPGKEREFVAAITRSGTTTYYADSVKGRFTISRDNAKQTVYLPMNSLQPEDTAVYYCAAQRAAPVDGKSDYWGHGTQVTVSS,low polyreactivity
6,QVQLVESGGGLVQAGGSLRLSSAASGRTFNYYTMGWYRQAPGKERELVAAITNGGSTNYADSVKGRFTISRDNAKNTVYLQMNSLKPEDTAVYYCNADAFAFRTLHYDYWGQGTQVTVSS,low polyreactivity
7,QVQLVESGGGLVQAGGSLRLSSAASGRTFRGNAMGWYSQAPGKERELVAAIRWNGGSTYYADSVKGRFTISRDNAKNTVYLQMNSLKPEDTAVYYCAVSYWYSRYDYWGQGTQVTVSS,high polyreactivity
8,QVQLVESGGGLVQAGGSLRLSSAASGRTFSAYAMGWYRQAPGKERELVARITSVDSTNYADSVKGRFTISRDNAKNTVYLQMNSLKPEDTAVYYCNVVNEHQSDFVVPFDYNHWGQGTQVTVSS,low polyreactivity
9,QVQLVESGGGLVQAGGSLRLSSAASGRTFSRYAMGWYRQAPGKERELVATISWSGGSTYYADSVKGRFTISRDNAKNTVYLQMNSLNPEDTAVYYCAAKGVYQYRFTKYGYWGQGTQVTVSS,high polyreactivity
10,QVQLVESGGGLVQAGGSLRLSSAASGRTFTHYAMGWYSQAPGKERELGASISDGGRTHYADSVKGRFTISRDNAKNTVSLQMNSLKPVDPAVYYCATDRYPTRRYDYWGQGSQVTVSS,low polyreactivity
11,QVQLVESGGGLVQAGGSLRLSSAASGRTIAYYTKGWYRQAPGKVRELVAAITWTGGRTYYPDSVKGRFTISRDIAKNTVYLQMNSLQPEDTAVYYCATQHRAGAYYLYTPYDYWGQGTQVTVSS,high polyreactivity
12,QVQLVESGGGLVQAGGSLRLSSAASGRTLIWYTMGWYRPAPGKERELVAAITSGGSTYYADSVKGRFTISRDNAKNTVYLQMNSLKPEDTAVYYCNARSAFWGWGYGSYDYWGQGTQVTVSS,low polyreactivity
13,QVQLVESGGGLVQAGGSLRLSSAASGSIFASYAMGWYRQAPGKERELVAAISRSGGSTYYADSVKGRFTISRDNAKNTVYLQMNSLIPEDTAVYYCATGKIREDDYWGQGTQVTVSS,high polyreactivity
14,QVQLVESGGGLVQAGGSLRLSSAASGSIFAYYAMGWSRQAPGKEWELVAAITSGGNTKYADSVKGRFTISRDNAKNTVYLQMNCLKPEDTAVYYCASYRTRALWGQGYGYWGHGTQVTVSS,high polyreactivity
15,QVQLVESGGGLVQAGGSLRLSSAASGSIFELNAMGWYRQAPGKERELVAAIRWRTGRTYYADSVKGRFTISRDNAKNTVYLQMNSLKPEDTAVYYCARVAPASGVRWYYYWGQGTQVTVSS,high polyreactivity
16,QVQLVESGGGLVQAGGSLRLSSAASGSIFLFYAMGWYRQAPGKERELVATITTGAGSTYYADSVKGRFTISRDNAKNTVFLQMNSLKPEDTAVYYCAATVSYDFGYVAVSYDYWGQGTQVTVSS,low polyreactivity
17,QVQLVESGGGLVQAGGSLRLSSAASGSIFNYNAMGWYRQAPGKERELVAAISSSGSTNYADSVKGRFTISRDNAKNTVYLQMNSLKPEDTAVYYCAADYGSYGVVRAVSIEYEYWGQGTQVTVSS,low polyreactivity
18,QVQLVESGGGLVQAGGSLRLSSAASGSIFQDYAMGWYRQEPGKERELVAGINWRGDDTYADSVKGRFTISRDNAKNTVYLQMNSLKPEDTAVYYCNAEDWGYGYDYWGQGTQVTVSS,low polyreactivity
19,QVQLVESGGGLVQAGGSLRLSSAASGSIFQYYTMGWYRQAPGKERELVASISSDGSTYYADSVKGRFTISRDNAKNTVYLQMNSLKPEDTAVYYCADVLWEPPVHPGYDYWGQGTQVTVSS,low polyreactivity
20,QVQLVESGGGLVQAGGSLRLSSAASGSIFRNAMGWYRQAPGKERELVAGINGSGGSTYYADSVKGRFTISRDNAKNTVYLQMNSLKPEDTAVYYCAAGTSKPTPIYGYWGQGTQVTVSS,low polyreactivity
21,QVQLVESGGGLVQAGGSLRLSSAASGSIFRSNAMGWYRQAPGKERELVAAIDYSGTSTTYADSVKGRFTISRDNAKNTVYLQMNRLKPEDTAVYYCNADGYYRGYWSGYEYWGQGTQVTVSS,low polyreactivity
22,QVQLVESGGGLVQAGGSLRLSSAASGSIFSIYAMGWYRQAPGKERELGAAITWSGGSTYYADSVKGRFTISRDNAKNTVYFQMNSLKPEDTAVYYCAAEIWFYYGGRKQRGGYWGQGTQVTVSS,high polyreactivity
23,QVQLVESGGGLVQAGGSLRLSSAASGSIFSSYAMGWYRQAPGKERELVAAITKRADRTNYADSVKGRFTISRDNAKNTVYLQMNSLKPEDTAVYYCNAEGQNDHPSNGYISYKYDYWGQGTQVTVSS,low polyreactivity
24,QVQLVESGGGLVQAGGSLRLSSAASGSIFVKNARGWYRQAPGKVRELVARISFSGGSTYYADSVKGRFTISRDNAKNTVYLQMNSLKPEDTAVYYCAKTVLRTEYGWWIKFDYWGQVTQVTVSS,low polyreactivity
25,QVQLVESGGGLVQAGGSLRLSSAASGSIFYGYAMGWYRQAPGKERELVATISWSAGSTYYADSVKGRFTISRDNAKTTVYLQMNSLKPEDTAVYYCATRVFTSSYRYRYGYWGQGTQVTVSS,high polyreactivity
26,QVQLVESGGGLVQAGGSLRLSSAASGSIFYRYAMGWYRQAPGKERELVAAITQSTDSTYYADSVKGRFTISRDNAKYNVYLQMNSLKPEDTAVYYCAAYLVYYRPYAYGYWGQGSQVTVSS,low polyreactivity
27,QVQLVESGGGLVQAGGSLRLSSAASGSIFYVYAMGWYRQAPGKERELVAAISGGGGSTYYADSVKGRFTISRDNAKNTVYLQMNSLKPEDTAVYYCAADLSGGPYLGGYDYWGQGTQVTVSS,high polyreactivity
28,QVQLVESGGGLVQAGGSLRLSSAASGSLFDGNAMGWYRQAPGKEREFVAAITSSDGSTSYADSVKGRFTISRDNAKNTVYLQMNSLKPEDTAVYYCNVDDYFWPGAKFDYWGQGSQVTVSS,low polyreactivity
29,QVQLVESGGGLVQAGGSLRLSSAASGSTFFTNALGWYRPAPGKERELGAVITKRGGSTYYADSVKGRFTISRDNAKNPVYLQMNSLKPEDTAVYYCAARIPKQQGYGYWGQGTQVTVSS,high polyreactivity
30,QVQLVESGGGLVQAGGSLRLSSAASGSTFGPYAMGWYRQAPGKERELVATITRNGGSTYYADSVKGRFTISRDYAKNTVYLQMNSLKPEETAFYSCNAEGRWSSFTQRMDYWGQGTQVNVSS,low polyreactivity
